Source: patent publication US20230391872A1 (ANAPTYSBIO, published 2023)
Where “and” joins values, the source holds several entries; their conditions need not be identical. Identical values can stand only once.

Tests used:
[1] = molecular target: β-galactosidase enzyme donor (ED)-tagged human BTLA on Jurkat cells (human, UniProt Q7Z6A9 31-289); assay: cell-based or functional assay
[2] = molecular target: T1, human BTLA on cells (stably transfected 293c18 cells; human peripheral blood T and B cells) (human, UniProt Q7Z6A9 31-289); assay: competition flow cytometry on 293c18 cells with human BTLA; increase of the binding of DyLight 650-HVEM-Fc (100 nM) with the antibody concentration [panel A]
T1 construct: whole, on cells; the cells are named under assay; also called cell surface BTLA; full-length human BTLA
Description: 293c18 cells, clone 1E4 stably expressing human BTLA were harvested with Accutase solution (Millipore Sigma/Sigma-Aldrich) and washed once with PBS, 1% BSA. Cells were plated at 2×10⁵ /well in U-bottom 96-well plates and placed on ice. Purified antibodies at twice the indicated concentrations were serially diluted 3-fold in FACS buffer (PBS, 1% BSA, 0.02% sodium azide). Antibodies tested were human IgG4 isotype control antibody specific for hen egg lysozyme, a reference BTLA IgG4 antagonist antibody, and 6G3 IgG4 (APE10840.06). Trimeric HVEM/LIGHT complexes were pre-formed by mixing equimolar (60 nM each) amounts of DyLight 650-HVEM human IgG1 Fc and trimeric LIGHT-foldon-his and pre-incubating for 15 minutes at room temperature. Either DyLight 650-HVEM-Fc (final concentration 100 nM; FIG. 6A) or pre-formed DyLight 650-HVEM/LIGHT complexes (final concentration of HVEM/LIGHT, 30 nM each; FIG. 6B) were added to the diluted antibodies (final concentrations of antibodies as indicated) and incubated for 15 minutes on ice. […] Cells were washed once, resuspended in FACS buffer and analyzed for fluorescence on a BD FACSArray (BD Biosciences). Median fluorescence intensities (MFI) were graphed in GraphPad Prism (GraphPad Software, Inc.) and curves fit with log(agonist) vs. response (three parameters) least squares fit. […]

[3] = molecular target: T1, human BTLA on cells (stably transfected …); assay: flow cytometry (MFI) on 293c18 cells stably expressing human BTLA, goat anti-human kappa-PE detection, four-parameter fit [left panel (Hu BTLA 293c18 cells), EC50 box]
Description: 293c18 cell clone 1E4 stably expressing human BTLA construct or clone 1G5 stably expressing cynomolgus monkey BTLA were harvested with Accutase solution (Millipore Sigma/Sigma-Aldrich) and washed once with Phosphate-Buffered Saline, 1% BSA. 293c18 cynomolgus monkey BTLA cells were loaded with the lipophilic carbocyanine dye, DiD (2 μM, 1,1′-dioctadecyl-3,3,3′,3′-tetramenthylindodicarbocyanine; ThermoFisher Scientific) by rocking gently for 10 minutes at room temperature. DiD-stained cells were washed in PBS, 1% BSA and equal amounts of human BTLA 293c18 cells and cynomolgus monkey BTLA 293c18-DiD-stained cells were mixed. Cells (2×10⁵ total cells/sample) were incubated with the indicated concentrations of purified 6G3 IgG4 (two production lots, APE10840.03 and APE10840.04 (H Chain SEQ ID NO: 144, L Chain SEQ ID NO: 174)) or human IgG4 isotype control antibody specific for hen egg lysozyme with gentle shaking for 10 minutes at 4° C. in FACS buffer (PBS, 1% BSA, 0.02% sodium azide). […] Cells were washed and resuspended in FACS buffer and analyzed for fluorescence on a BD FACSArray (BD Biosciences). DiD stained cells expressing cynomolgus monkey BTLA (FIG. 3) were analyzed for median fluorescence intensity (MFI) separately from cells expressing human BTLA (FIG. 3). […]

EC50, SHP2 recruitment PathHunter Jurkat BTLA signaling assay with U-2 OS hFcγRIa cells [1]: 0.0093 µg/mL
EC50, SHP2 recruitment PathHunter Jurkat BTLA signaling assay, soluble antibody [1]: 0.125 µg/mL
fold increase of agonist potency with cell-associated FcγRIa against the assay without FcγRIa [1]: ~13 fold
EC50 (read off the curve) [2]: ~0.7 nM
EC50 [3]: 1.69 nM and 1.79 nM
B1: 6G3 IgG4 anti-BTLA antibody (APE10840 / APE12839 / APE13308) (antibody, V domains shown)
VH: QVQLVQSGAEVKKPGSSVKVSCKASGYVFSTSWMNWVRQAPGQGLEWMGRIYPGDADTNYVGKFKGRVTITADKSTTTAYMELSSLRSEDTAVYFCAKSGTFNFGNYRWYFDVWGKGTTVTVSS
VL: AIQLTQSPSSLSASVGDRVTITCRVSENIYSHLAWYQQKPGKAPKLLIYAATNLALGVPSRFSGSGSGTDYTLTISSLQPEDFATYYCQLFWGPPLTFGGGTKVEIKR
notes: Humanized antibody from a mouse hybridoma, tested as human IgG4 (detected with anti-human kappa); Some assays used labelled lots (DyLight 650, AF647, biotin, DyL488); also called 6G3 antibody; APE10840.03
